The values below come from the nanobody polyreactivity screen of Harvey et al. (2022).

The nature of this data set: yeast display, Sf9 membrane polyspecificity reagent, FACS + sequencing; frameworks hold sequencing errors. The gist of the method:
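In a synthetic yeast display library (Saccharomyces cerevisiae BJ5465), nanobody expression was induced with galactose for 36–48 hours. FACS gates were set low and high (top ~1%) using anti-HA fluorescence for expression and streptavidin fluorescence for binding of the Sf9 membrane reagent. Each polyreactivity label is drawn from the gate of origin.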
“QVQLVESVGGLVQAGGSLRLSCTATGSNFGYNAMGSYRQAPGKEREFVAAISWRGGSTYYADSVKGRLTISRDYAKNTVYLQMNSLKPEDTAVYYCAAVPQGSKRGYYYWGQGTQVTVSS”: the “polyreactivity (PSR sort gate)” value is “high polyreactivity”.

For the sequence “QVQLVESGGGLVQAGGSLRLSCAASGFTFARYAMGWYIQAPGKERELVASISGSGESTYYADSVKGRFTISRDNAKNTVYLQMNSLKPEDTAVYYCAAEGSFLFFSWYWPEYDYWGQGTQVTVSS”, the “polyreactivity (PSR sort gate)” value is on record as “high polyreactivity”.

In the case of “QVQLVESGGGLVQAGGSLRLSCAASGFTFERYTMGWYRQAPGKERELVATISRRSGRTSYADSVKGRFTISRDNAKNTVYLQMNSLKPEDTAVYYCAVDDAYPDRYDYWGQGTQVTVSS”, the “polyreactivity (PSR sort gate)” value is “high polyreactivity”.

With “QVQLVESGGGLVQAGGSLRLSCAASGSIISGNVMGWYRQAPGKEREFVATISWRGGNTYYADSVKGRFTISRDNAKNTVYLQMNSLKPEETAVYDCATRRLYSKSWYYYWGQGTQVTVSS”, the “polyreactivity (PSR sort gate)” value is given as “high polyreactivity”.

As for “QVQLVESGGGLVQAGGSLRLSCAASGRIFRGNAMGWYRQAPGKERELVAASTSSGDSTFYADSVKGRFTISRDNAKNTVYLQMNSLKPEDTAVYYCAANVRYQRTSGYYYWGQGTQVTVSS”, the “polyreactivity (PSR sort gate)” value is “high polyreactivity”.

In the case of “QVQLVESGGGLVQAGGSLRLSCAASGRIIYGYAMGWYRQEPGKERELVAAITATYYGDSVKGRFTISRDNAKNTVYLQMNSLKPEDTAVYYCNAYLCPKQPLSPPDPTFEGGYWGQCTQVTVSS”, the “polyreactivity (PSR sort gate)” value is “low polyreactivity”.

With “QVQLVESGGGLVQAGGSLRLSCAASGRTFRYYAMGWYRQAPGKERELVAAITSVGGTYYADSVKGRFTISRDNAKNTVYLQMNSLKPEDTAVYYCAVTSYKYRKYDYWGQGTQVTVSS”, the “polyreactivity (PSR sort gate)” value is “high polyreactivity”.

Consider “QVQLLESGGGLVQAGGSLRLSCAASGRIFTPYAMGWYRQAPGKERELVAVIRDGSTYYADSVKGRFTISRDNAKNTVYLQMNSLKPEDTAVYYCAADVGYSPYFFGGTRYYKYDYWGQGTQVTVSS”, for which the “polyreactivity (PSR sort gate)” value is recorded as “low polyreactivity”.

On to “QVQLVESGGGLVQAGGSLRLSCAASGRTFAAYAMGWYRPAPGKESELVAAISSSSGNTYYADSVKGRFTISRDNAKNTVYLQMNSLKPEDTAVYYCNAQRRFNANYWYDYWGQGTQVTVSS”, for which the “polyreactivity (PSR sort gate)” value is “high polyreactivity”.

Regarding “QVQLVESGGGLVQAGGSLRLSCAASGSTFDIYAMGWYRPAPGKERELVAVISGGDGSTYYADSVKGRFTISRDNAKNTVYLQMNSLKPEDTAVYYCAADYISPGYWDGEYDCWGQGTQVTVSS”, the “polyreactivity (PSR sort gate)” value is recorded as “low polyreactivity”.

In the case of “QVQLVESGGGLVQAGGSLRLSCAASGSTFKSYVMGWYRAAPGKERELVAAISTGDSTYYADSVKGRFTISRDNAKNTVYLQMNSLKPEDTAVYYCAADPGYTVEPWEDDYWGQGTQVTVSS”, the “polyreactivity (PSR sort gate)” value is recorded as “low polyreactivity”.

Turning to “QVQLVESGGGLVQAGGSLRLSCAASGRTQWRYAMGWYRQAPGKERELVASIRSGGSTYYADSVKGRFTISRDNAKNTVYLQMNSLKPEDTAVYYCAARYYWGAEAGYYYWGQGTQVTVSS”, the “polyreactivity (PSR sort gate)” value was “high polyreactivity”.

For “PVQLVESGGGLVQAGGSLRLSCAASGSTIPSYAMGWYRQAPGKERELVASITYSDGTTRYADSVKGRFTISRDNAKNTVYLQMNSLKPEDTAVYYCNAVYYREGMDYWGQGTQVTVSS”, the “polyreactivity (PSR sort gate)” value was “low polyreactivity”.

With “QVQLVESGGGLVQAGGSLRLSCAASGSIFYSYAMGWYRHAPGKERELVAAISWDASTYYADSVKGRFTISRDNAKNTVYLQMNSLKPEDTAVYYCNADIPYYFVYDAYDFWGQGTQVTVSS”, the “polyreactivity (PSR sort gate)” value was “low polyreactivity”.

For the sequence “QVQLVESGGGLVQAGGSLRLSCDASGSIFRGYAMGWYRQAPGKEREFVAAISKRSGSTYYADSVKGRFTISRDNAKNSVYLQMNSLKPEDTAVYYCAKERVAAAGGYWGQGTQVTVSS”, the “polyreactivity (PSR sort gate)” value was “high polyreactivity”.

As to “QVQLVESGGGLVQAGGSLRLSCAASGITILRYAMGWYRQAPGKERELVARITRSGGSTYYADSVKGRFTISRDNAKNTVYLQMNSLKPEDTAVYYCNDVRSAGDGDYWGQGTQVTVSS”, the “polyreactivity (PSR sort gate)” value is “high polyreactivity”.

Turning to “QFQLVESGGGLVQAGGSLRLSCAASGLTFGYYAMGWYRQAPGKERELVAAITSRGGSTYYADSVKRRFTISRDNAKNTVYLQMNSLKPEDTAVYYCAARYAEYGSWGQGTQVTVSS”, the “polyreactivity (PSR sort gate)” value is recorded as “high polyreactivity”.

As to “QVQLVESGGGLVQAGGSLRLSCAASGSIFNPYDMGWYRQAPGKERELVATISGGGGSTYYADSVKGRFTISRDNAKNTVYLQMNSLKPEDTAVYYCNKTDFNTNDLKFDYWGQGTQVTVSS”, the “polyreactivity (PSR sort gate)” value is “low polyreactivity”.

With “QVQLVESGGRLVQAGGSLRLSCAAYGSTFQVNAMGWYRQAPGKERELVAAISRGGGSTYYADSVKGRFTISRDNAKNTVYLQMNSLKPEETAVYYCAAVYYRRISQGDTQTYYQYNYWGQGTQVTVSS”, the “polyreactivity (PSR sort gate)” value was “high polyreactivity”.

“QVQLVESGGGLVQAGGSLRLSCAASGFTFYQYGMGWYRQAPGKERELVATITSGGRTNYADSVKGRFTISRDNAKNTVYLQMNSLKPEDTAVYYCNKLPYYPRFGRIGRYYYWGQGTQVTVSS”: the “polyreactivity (PSR sort gate)” value is given as “high polyreactivity”.

On to “QVQLEESGGGLVKARGSLRITCAASGSTFDYYTMGWYRQAPGKERELFAAINSSGGRTYYADSVKGRFTISRDTAKNTVYLQMNSLIPEDTAVYDCAAVTLCLGRYPYTYTSRYEYWGLGTQVTVSS”, for which the “polyreactivity (PSR sort gate)” value is listed as “high polyreactivity”.

With “QVQLVESGGGLVQAGGSLRLICAASGFTFARYAMGWYRQAPGKERELVAAITSAGSTSYADSVKGRFTISRDNAKNTVYLQMNSLKPEDTAVYYCAAPFTVRYNYWGQGTKVTVSS”, the “polyreactivity (PSR sort gate)” value is recorded as “high polyreactivity”.

Take “QVQLVESGGGLVQAGGSLRLSCAASGSTFNFNAMGWYRQAPRKERELVAAISSSGGSTYYADSVKGRFTISRDNAKNTVYLQMNSLKPEDTAVYYCATVRRKSPLYYYWGQGTQVTVSS”: the “polyreactivity (PSR sort gate)” value is on record as “high polyreactivity”.

Take “QVQLVESGGGLVQAGGSLRLSCAASGIIFPGYAMGWYRQAPGKERELVAAISRSGASTYYADSVKGRFTISRDNAKNTVYLQMNSLKPEDTAVYYCAAEWYRGGEYRRYDYWGQGTQVTVSS”: the “polyreactivity (PSR sort gate)” value was “high polyreactivity”.

“QVQLVESGGGLVQAGGSLRLSCAASGSTLGRYALGWYRQAPGKERELVASITWSDDSTYYADSVKGRFTISRDNAKNTVYLQMNSLKPEDTAVYYCAAAGNLYTYRFYYWGQGTQVTVSS”: the “polyreactivity (PSR sort gate)” value is recorded as “low polyreactivity”.

For “QVQLVESGGGLVQAGGSLRLSCAASGRIFVGYAMGWYRQAPGKERELVAAISARGGSTYYADSVKGRFTISRDNAKNTVYLQMNSLKPEDTAVYYCAADEASSRGYYDYDYWGQGTQVTVSS”, the “polyreactivity (PSR sort gate)” value was “low polyreactivity”.

Turning to “QVQLVESGGGLVQAGGSLRLSCAASGIIFTGYTMGWYRQAPGKERELVAAITWRGGCTYYADSVKGRFTISRDNAKNTVYLQMNSLKPEDTAVYYCAAEGWYSWDDDYWGQGTQVTVSS”, the “polyreactivity (PSR sort gate)” value was “low polyreactivity”.

As to “QVQLVESGGGLVQAGGSLRLSCAASGSTFALYGMGWYRQAPGKERELVAAINSGVSTNYADSVKGRFTISRDNAKNTVYLQMNSLKPEDTAVYYCNADYYIAPYDSWGQGTQVTVSS”, the “polyreactivity (PSR sort gate)” value is listed as “low polyreactivity”.

Regarding “QVQLVESGGGLVQAGGSLRLSCAASGFIFRDNAMGWYRQAPGKERELVAAISERGGRTYYADSVKGRFTISRDNEKNTVYLQMISLKPEDTAVYYCAAEDIANFYYWGQGTQVTVSS”, the “polyreactivity (PSR sort gate)” value was “high polyreactivity”.

With “QVQLVESGGGLVQAGGSLRLSCAASGGNFVFNAMGWYRQAPGKERELVAVITYSGGRTYYADSVKGRFTISRDNAKNTVYLQMNSLKPEDTAVYYCNARYGYPLGHSIYYYWGQGTQVTVSS”, the “polyreactivity (PSR sort gate)” value was “low polyreactivity”.

For the sequence “QVQLVESGGGLVQAGGSLRLSCAASGSTFIDYAMGWYRQAPGKERELVAGGSTNYADSVKGRFTISRDNAKNTVYLQMNSLKPEYTAVYYCNADALLYPYWGFDYWGQGTQVTVSS”, the “polyreactivity (PSR sort gate)” value is “low polyreactivity”.

Take “QVQLVESGGGLVQAGGSLRLSCSASGFIFPRYTMGWYRQAPGKERELVAGITLRGGSTYYADSVKGRFTISRDNAKNTVYLQMNSLKPDDTAVYYCARGISRGRSFGIGYDYWGQGTQVTVSS”: the “polyreactivity (PSR sort gate)” value is “low polyreactivity”.

Take “QVQLVESGARLVQAGGSLRLSCAASGSILGGNAMGWYRQPPGKERELVAAITFSGGGTYYADSVKGRFTISRDNAKNTVYLQMNSLKPEDTAVYYCAADIAGYTYEFDYWGQGTQLTVSS”: the “polyreactivity (PSR sort gate)” value is listed as “low polyreactivity”.

Regarding “QVQLVESGGGLVQAGGSLRLSCAASGSTFRPNAMGWYRQAPGKERELVAAISRSGVSTYYADSVKGRFTISRDNAKNTVYLQMNSLQPEDTAVYYCARRYTGRPVLRESWGQGTQVTVSS”, the “polyreactivity (PSR sort gate)” value is recorded as “low polyreactivity”.

On to “QVQLVESGGGLVQAGGSLRLSCAASGSIFAAYVMGWYRQAPGKERELVAAISYSGGGTYYADSVKGRFTISRDNAKNTVYLQMNSLKPEDTAVYYCAADFGVFKSARYYYWGQGTQVTVSS”, for which the “polyreactivity (PSR sort gate)” value is recorded as “low polyreactivity”.

As for “QVQLVESGGGLVQAGGSLRLSCAASGIIFEYYAMGWYRQAPGKERELVAAITRGGSTYYADSVKGRFTISRDNAKNTVYLQMNSLKPEDTAVYYCAADRYYYEYEYWGQGTQVTVSS”, the “polyreactivity (PSR sort gate)” value was “low polyreactivity”.

On to “QVQLVESGGGLVQAGGSLRLSCAASGYIFATNAMGWYRQSPGKERELVAAITRSGGRTYYADSVKGRFTISRDNAKNTVYLQMNSLKPEDTAVYYCAAARPTNIYYYWGQGTQVTVSS”, for which the “polyreactivity (PSR sort gate)” value is listed as “high polyreactivity”.

As to “QVQLVESGGGLVQAGGSLRLSCAASGFTFGRNAMGWYRQAPGKERELVAAISSSGGTTYYADSVKGRFTISRDNAKNTVYLQMNSLKPEDTAVYSCAARRWYQSRRGGFDYWGQGTQVTVSS”, the “polyreactivity (PSR sort gate)” value was “high polyreactivity”.

Take “QVQLVESGGGLVQAGGSLRLSCAASGRIYDGYAMGWYRQAPGKERELVATISSGGSTYYADSVKGRFTISRDNAKNNVYLQMNSLKPEDTAVYYCAADSWVQFDYWGQGTQVTVSS”: the “polyreactivity (PSR sort gate)” value is on record as “low polyreactivity”.

Regarding “QFQLVESGGGLVQAGGSLRLSCAASGSTFGGNAMGWYRQAPGKERELVAAIDSGGGTNYADSVKGRFTISRDNAKNTVYLQMNSLKPEDSAVYYCNADWAVRSTQNSSSGHDYWGQGTQVTVSS”, the “polyreactivity (PSR sort gate)” value is “low polyreactivity”.

For “QVQLVESGRGLVQEGGSLRLSCASSGSTFKVYAMGWYRQAPGKERELVAAISQSGGSTYYADSVKGRFTISRDNAKNTVYIQMNSLKPEDTAVYYCAVRTYVYNWSFSSLPYDYWGQGTQVTVSS”, the “polyreactivity (PSR sort gate)” value is listed as “high polyreactivity”.
